Among the data in paper PMC5416816 are binding result and Kd values, retold here.

One may read the Kd as the constant that tells how readily two partners part at equilibrium.

One data set concerns the target T1, TIA-1 RRM2S (UniProt P31483-2 95-184).
T1 sequence: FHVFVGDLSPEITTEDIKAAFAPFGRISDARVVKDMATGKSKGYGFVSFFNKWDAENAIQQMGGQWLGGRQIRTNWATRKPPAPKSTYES
Put plainly: NMR.

For data set [1], the target named is T2, TIA-1 RRM23K (UniProt P31483-2 93-274).
T2 sequence: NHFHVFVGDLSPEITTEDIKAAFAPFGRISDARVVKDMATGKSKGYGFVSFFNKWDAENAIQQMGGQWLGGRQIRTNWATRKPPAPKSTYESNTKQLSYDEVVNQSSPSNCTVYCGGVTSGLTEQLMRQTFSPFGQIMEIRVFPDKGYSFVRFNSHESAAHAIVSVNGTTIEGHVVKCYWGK
Put plainly: ITC. On the technique in general: ITC needs no label: the signal is the heat of the interaction.

Data set [2] concerns the target T3, TIA-1 RRM23L (UniProt P31483-2 80-292).
T3 sequence: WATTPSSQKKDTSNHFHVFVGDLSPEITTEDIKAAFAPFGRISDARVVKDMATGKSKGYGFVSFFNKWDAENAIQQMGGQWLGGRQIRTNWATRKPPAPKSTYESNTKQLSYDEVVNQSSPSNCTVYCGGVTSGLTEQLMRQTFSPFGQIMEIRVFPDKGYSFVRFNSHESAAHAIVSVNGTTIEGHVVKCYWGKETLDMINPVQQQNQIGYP
Description: NMR.

Data set [3] has as its target T3, TIA-1 RRM23L. Description: NMR. The source holds these as a separate data set.
For the next data set, the target named is T4, TIA-1 RRM23S (UniProt P31483-2 94-272).
T4 sequence: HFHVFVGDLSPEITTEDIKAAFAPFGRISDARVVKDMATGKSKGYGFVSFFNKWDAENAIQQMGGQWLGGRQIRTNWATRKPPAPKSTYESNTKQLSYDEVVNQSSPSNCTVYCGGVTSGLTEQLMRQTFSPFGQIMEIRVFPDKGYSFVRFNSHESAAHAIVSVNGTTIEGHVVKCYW
Put plainly: fluorescence anisotropy. (Polarisation of emitted light reports the rotation of a fluorescent probe.)

For data set [4], the target named is T2, TIA-1 RRM23K. Description: fluorescence anisotropy.
Data set [5] deals with T3, TIA-1 RRM23L. Description: fluorescence anisotropy.
For the next data set, the target named is T5, TIA-1 RRM2L (UniProt P31483-2 80-188).
T5 sequence: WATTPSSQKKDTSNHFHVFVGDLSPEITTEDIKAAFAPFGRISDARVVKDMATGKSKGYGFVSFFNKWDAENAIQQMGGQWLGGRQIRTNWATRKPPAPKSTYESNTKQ
Put plainly: fluorescence anisotropy.

Read-outs that look alike come from different tables or passages of the source.

For the molecule TTTTT (ssDNA) [TTTTT DNA], in the data set with TIA-1 RRM2S, the binding result was “binds”.

The molecule UUUUUACUCC (ssRNA) [UC-rich RNA (unlabeled)] returned a Kd in the data set with TIA-1 RRM23K [1] of 12 ± 2 nM.

Regarding TTTTTACTCC (ssDNA, 5' thiol C6 S-S) [5'thiol TC-rich DNA], the binding result with TIA-1 RRM23L [2] is listed as “binds”.

For TTTTTACTCC (ssDNA, 5' thiol C6 coupled to PROXYL) [PROXYL TC-rich DNA], in the data set with TIA-1 RRM23L [3], the binding result was “binds”.

In the data set with TIA-1 RRM23K [1], ACUCCUUUUU (ssRNA) [CU-rich RNA (unlabeled)] gave a Kd of 70 ± 3 nM.

For the molecule ACUCCUUUUU (ssRNA) [CU-rich RNA], the Kd in the data set with TIA-1 RRM23S amounted to 6.6 ± 0.7 µM; with TIA-1 RRM23K [4], 130 ± 10 nM; with TIA-1 RRM23L [5] it was 130 ± 7 nM; with TIA-1 RRM2L, 9.1 ± 2 µM.

Turning to UUUUUACUCC (ssRNA) [UC-rich RNA], binding in the data set with TIA-1 RRM23K [4] was put at a Kd of 5 ± 0.3 nM.

ACTCCTTTTT (ssDNA) [CT-rich DNA]: binding with TIA-1 RRM23K [4] was put at a Kd of 30 ± 3 nM.

In the data set with TIA-1 RRM23K [4], TTTTTACTCC (ssDNA) [TC-rich DNA] had a Kd of 8 ± 1 nM.
